Laboratory results as given in patent US20110165156A1.

Assays:
Assay in all cases: cell-based or functional assay
[1] = target: CSF-1R of cynomolgous monocytes (cynomolgous)
[2] = target: human mutant CSF-1R L301S Y969F, on cells (human) (UniProt P07333)
[3] = target: human wildtype CSF-1R (wt CSF-1R), full-length, on cells (human) (UniProt P07333)

% inhibition at 20 µg/ml, mutant CSF-1R cells [2] [%]	Substance	% inhibition (of survival) = (100% - % survival) [1] [%]	% survival (cynomolgous monocytes, 5 µg/ml antibody) [1] [%]	Mutant CSF-1R IC30 (cell viability, 3D culture, CellTiterGlo) [2] [µg/mL]	Mutant CSF-1R IC50 (cell viability, 3D culture, CellTiterGlo) [2] [µg/mL]	wtCSF-1R IC30 (cell viability, 3D culture, CellTiterGlo) [3] [µg/mL]	wtCSF-1R IC50 (cell viability, 3D culture, CellTiterGlo) [3] [µg/mL]
–	Anti CSF-1R SC 2-4A5 (Santa Cruz Biotechnology, US) (antibody)	69	31	2.56	10	16.6	10
0	goat polyclonal anti-CSF-1R antibody ab10676 (abcam)	–	–	> 20	–	14.2	–
